One substance from patent US20230227565A1, “Method for Treating CD127-Positive Cancers by Administering an Anti-CD127 Agent” (OSE IMMUNOTHERAPEUTICS, priority 2021, published 2023) can be followed below.

In series [1] the test system is macrophages. As to the kind of experiment: Phagocytosis of macrophages by macrophages (autophagocytosis). As to conditions: FIG. 11A.
Experimental: (§1) Phagocytosis assays. In vitro phagocytosis assays were performed by 1-hour coculture of 2,5×10^4 human primary M1 or THP1 macrophages labeled with CellTrackerGreen (ThermoFisher, Waltham, Mass., USA, 1/2000, 20 min at 37° C.) and 5×10^4 leukemic cells labeled with CPD (ThermoFisher, 1/2000 10 min at 37° C.) in serum-free RPMI. Phagocytosis was analyzed by a CytoFLEX flow cytometer (Beckman, Brea, Calif., USA) and analysis using FlowJo software (TreeStar, BD Life Sciences Franklin Lakes, N.J., USAs). The phagocytic index was calculated as follows: fold change of percentage of CPD+ cells in CTG+ macrophages compared to the one detected by treatment with istotype control multiplied by the fold change in geometric mean in APC fluorescence (CPD) in CTG+ macrophages compared to the one detected with isotype control.
A further series has as its system normal T cells. In words: Phagocytosis of normal T cells by macrophages. In kind it is cell-based, human. Conditions: FIG. 10.
Series [2] has as its system macrophages. As to the kind of experiment: Toxicity on macrophages (viability). Conditions: FIG. 9; increasing doses.

Experimental for normal T cells: as §1

For the substance “5F9: reference pro-phagocytic anti-CD47 antibody”, the autophagocytosis of macrophages result in the series with macrophages [1] is recorded as “have an autophagocytosis activity”. Moreover, in the series on normal T cells, the “phagocytosis of normal T cells by macrophages” value was “A similar result is obtained”. The “overall number of live macrophages” value with macrophages [2] is reported as “drastically reduced”.
